Our source for the Kd, maximal inhibition of F10.9 cells (growth inhibition, crystal violet, 4 days); IL-6 concentration in the mixture and maximal inhibition of F10.9 cells (growth inhibition, crystal violet, 4 days); sIL-6RδVal concentration in the mixture values is patent publication US20070172455A1.

Experiment [1] has as its target soluble form of gp130 (sgp130) (human) (UniProt P40189). Briefly: plate binding assay on sgp130 captured by anti-human gp130 mAb; rhuIL-6 at 500 ng/ml with sIL-6RδVal at 2 to 500 ng/ml, detected with rabbit anti-IL-6R; Scatchard plot.
For experiment [2], the target named is gp130 on F10.9 melanoma cells (UniProt Q00560). Briefly: cell-based or functional assay.
Sequence of gp130 on F10.9 melanoma cells (Q00560 23-917 limits assumed): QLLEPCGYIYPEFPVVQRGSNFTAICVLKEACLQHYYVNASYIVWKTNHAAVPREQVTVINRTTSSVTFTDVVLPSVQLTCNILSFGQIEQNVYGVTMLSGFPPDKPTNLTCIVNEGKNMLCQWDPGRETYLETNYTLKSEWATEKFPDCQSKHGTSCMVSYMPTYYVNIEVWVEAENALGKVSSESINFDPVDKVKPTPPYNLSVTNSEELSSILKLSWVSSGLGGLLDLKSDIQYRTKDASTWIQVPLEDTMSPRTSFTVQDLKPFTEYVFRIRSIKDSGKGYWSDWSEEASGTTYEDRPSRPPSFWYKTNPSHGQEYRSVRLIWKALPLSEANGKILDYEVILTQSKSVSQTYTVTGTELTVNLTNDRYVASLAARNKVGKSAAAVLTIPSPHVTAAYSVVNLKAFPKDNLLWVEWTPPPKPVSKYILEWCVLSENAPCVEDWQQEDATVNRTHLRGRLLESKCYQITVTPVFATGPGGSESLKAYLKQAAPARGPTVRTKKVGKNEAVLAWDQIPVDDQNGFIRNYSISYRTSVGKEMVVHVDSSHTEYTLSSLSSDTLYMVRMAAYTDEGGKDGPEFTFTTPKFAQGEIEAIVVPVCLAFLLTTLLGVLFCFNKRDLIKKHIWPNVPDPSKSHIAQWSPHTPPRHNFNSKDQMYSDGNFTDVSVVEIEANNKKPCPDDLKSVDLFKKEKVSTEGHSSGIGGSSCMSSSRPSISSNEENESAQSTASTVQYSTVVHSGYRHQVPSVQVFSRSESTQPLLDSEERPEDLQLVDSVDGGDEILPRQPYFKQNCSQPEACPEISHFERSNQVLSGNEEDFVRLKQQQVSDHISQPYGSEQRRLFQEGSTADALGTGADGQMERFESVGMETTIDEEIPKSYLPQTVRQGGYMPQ

Sequence of soluble form of gp130 (sgp130) (human) (P40189 23-619 limits assumed): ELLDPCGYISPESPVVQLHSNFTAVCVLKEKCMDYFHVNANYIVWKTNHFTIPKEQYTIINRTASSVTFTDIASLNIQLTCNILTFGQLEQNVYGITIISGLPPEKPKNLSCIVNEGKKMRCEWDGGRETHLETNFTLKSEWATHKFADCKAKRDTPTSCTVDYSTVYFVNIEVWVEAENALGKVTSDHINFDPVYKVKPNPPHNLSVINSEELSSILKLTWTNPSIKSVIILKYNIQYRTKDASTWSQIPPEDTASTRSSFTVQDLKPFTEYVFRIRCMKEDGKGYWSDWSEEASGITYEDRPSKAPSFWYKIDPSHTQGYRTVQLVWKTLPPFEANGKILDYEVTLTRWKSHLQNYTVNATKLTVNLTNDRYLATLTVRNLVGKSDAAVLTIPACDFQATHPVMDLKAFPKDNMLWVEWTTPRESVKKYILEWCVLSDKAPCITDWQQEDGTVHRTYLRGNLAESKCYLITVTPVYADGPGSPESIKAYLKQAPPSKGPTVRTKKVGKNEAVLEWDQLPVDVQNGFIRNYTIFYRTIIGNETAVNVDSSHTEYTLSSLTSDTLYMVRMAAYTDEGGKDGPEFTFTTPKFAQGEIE

Broadly, the Kd is the free concentration of one partner at which half of the binding sites on the other are occupied at equilibrium, for simple one-to-one binding. With “mixture of human IL-6 and sIL-6R (rhuIL-6 together with human sIL-6RδVal) (from UniProt P08887 20-356; P05231 29-212)”, in experiment [1], the Kd is 0.26 nM. In experiment [2], the maximal inhibition of F10.9 cells (growth inhibition, crystal violet, 4 days); IL-6 concentration in the mixture worked out at 7.5 nM and the maximal inhibition of F10.9 cells (growth inhibition, crystal violet, 4 days); sIL-6RδVal concentration in the mixture was 2 nM.
